The text below walks through data of patent publication US6884600.

Series [1] deals with T1, GST-M110-(M1-E309), GST tag not cleaved.
T1 chain: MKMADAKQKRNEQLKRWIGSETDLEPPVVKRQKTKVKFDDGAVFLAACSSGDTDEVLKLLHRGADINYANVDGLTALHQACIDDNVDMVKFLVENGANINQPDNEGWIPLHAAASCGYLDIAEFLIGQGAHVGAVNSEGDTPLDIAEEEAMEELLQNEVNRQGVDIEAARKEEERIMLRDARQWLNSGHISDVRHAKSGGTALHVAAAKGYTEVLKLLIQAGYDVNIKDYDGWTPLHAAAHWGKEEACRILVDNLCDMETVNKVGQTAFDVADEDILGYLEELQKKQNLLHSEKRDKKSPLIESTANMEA

Series [2] deals with catalytic subunit of protein phosphatase-1, γ1-isoform (PP1γ1), produced in Escherichia coli (UniProt P36873). The series can be described thus: co-crystal structure at 3.0 Å, method of Lee and Richards.
catalytic subunit of protein phosphatase-1, γ1-isoform (PP1γ1), produced in Escherichia coli, sequence (P36873 whole entry, canonical isoform): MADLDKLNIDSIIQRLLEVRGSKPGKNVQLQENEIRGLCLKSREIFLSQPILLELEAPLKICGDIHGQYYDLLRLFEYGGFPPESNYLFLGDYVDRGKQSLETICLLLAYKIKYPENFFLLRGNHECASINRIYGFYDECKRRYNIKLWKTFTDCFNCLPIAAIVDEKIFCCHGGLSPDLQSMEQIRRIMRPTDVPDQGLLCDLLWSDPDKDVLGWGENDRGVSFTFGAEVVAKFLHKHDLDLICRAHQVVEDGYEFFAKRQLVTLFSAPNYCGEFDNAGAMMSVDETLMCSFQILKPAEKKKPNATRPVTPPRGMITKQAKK

B1: β isoform of PP1c released from rabbit skeletal muscle PP1G (protein)
chain: ADGELNVDSLITRLLEVRGCRPGKIVQMTEAEVRGLCIKSREIFLSQPILLELEAPLKICGDIHGQYTDLLRLFEYGGFPPEANYLFLGDYVDRGKQSLETICLLLAYKIKYPENFFLLRGNHECASINRIYGFYDECKRRFNIKLWKTFTDCFNCLPIAAIVDEKIFCCHGGLSPDLQSMEQIRRIMRPTDVPDTGLLCDLLWSDPDKDVQGWGENDRGVSFTFGADVVSKFLNRHDLDLICRAHQVVEDGYEFFAKRQLVTLFSAPNYCGEFDNAGGMMSVDETLMCSFQILKPSEKKAKYQYGGLNSGRPVTPPRTANPPKKR
As for B1, the “concentration needed to modulate the substrate specificity of PP1c, relative to the cleaved fragment” value in series [1] is “If the GST tags were not cleaved with thrombin, a 10-fold higher concentration of M110-(M1-E309) was needed to modulate the substrate specificity of PP1c”.

In series [2], GRRVSFADNFGFN [GM-(G63-N75) synthetic peptide] gave a total solvent accessible surface area buried on formation of the complex of 980 Å2.
